Kd data for one molecule are collected here from doi:10.1101/2023.12.22.573000.

This data set concerns the target T1, RIG-I (recombinant) (human? (GeneID 23586), UniProt O95786 1-925).
T1 sequence: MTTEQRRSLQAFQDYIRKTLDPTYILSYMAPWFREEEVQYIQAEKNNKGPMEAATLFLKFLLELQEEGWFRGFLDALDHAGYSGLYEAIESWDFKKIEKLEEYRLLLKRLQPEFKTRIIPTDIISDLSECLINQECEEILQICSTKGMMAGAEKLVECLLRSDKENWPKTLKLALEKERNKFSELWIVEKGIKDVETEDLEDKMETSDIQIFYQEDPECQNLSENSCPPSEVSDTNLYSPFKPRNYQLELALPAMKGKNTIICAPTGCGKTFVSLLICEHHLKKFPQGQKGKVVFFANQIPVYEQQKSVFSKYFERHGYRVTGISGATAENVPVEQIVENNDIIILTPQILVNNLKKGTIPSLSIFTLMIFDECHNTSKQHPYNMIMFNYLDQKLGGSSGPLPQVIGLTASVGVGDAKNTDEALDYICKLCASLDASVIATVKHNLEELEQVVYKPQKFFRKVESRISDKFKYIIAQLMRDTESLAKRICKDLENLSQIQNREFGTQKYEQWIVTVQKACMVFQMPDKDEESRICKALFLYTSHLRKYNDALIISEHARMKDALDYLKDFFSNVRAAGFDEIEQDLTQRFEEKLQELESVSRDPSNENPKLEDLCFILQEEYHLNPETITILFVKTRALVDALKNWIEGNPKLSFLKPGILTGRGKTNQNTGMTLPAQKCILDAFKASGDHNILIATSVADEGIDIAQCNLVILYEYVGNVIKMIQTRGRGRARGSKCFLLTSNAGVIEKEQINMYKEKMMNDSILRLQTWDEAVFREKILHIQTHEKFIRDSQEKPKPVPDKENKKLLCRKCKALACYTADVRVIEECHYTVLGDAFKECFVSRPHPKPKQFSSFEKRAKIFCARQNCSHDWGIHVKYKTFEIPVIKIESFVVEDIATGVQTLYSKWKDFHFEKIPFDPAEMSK
Put plainly: EMSA. In general terms: In EMSA bound probe runs differently from free probe, usually more slowly.

B1: 5'-pppG synthetic 24 bp dsRNA (dsRNA)
RNA 1: GGCAAAAGCAGGGUGACAAAGACA
RNA 2: UGUCUUUGUCACCCUGCUUUUGCC
modifications: 5'-ppp on sense strand only
For B1, the Kd was 0.94 nM.

One may read the Kd as the constant that tells how readily two partners part at equilibrium.
